Patent US12269859B2, “Synthetic immune receptors and methods of use thereof” (Angeles Therapeutics, Inc., priority 2016, dated 2025)

Tests used:
RAJI cells = experiment: RAJI xenograft model of lymphoma in NSG mice (survival); type: in vivo; conditions: 200 ng/mouse intraperitoneal three times, with SIR-T cells
Method: In vivo efficacy of SIR targeting CD19. […] SIR constructs and Gluc-PAC-G07 control construct encoding non-secretory form of Guassia Luciferase. Approximately half the cells were selected with puromycin while the other half was expanded without puromycin selection. NSG mice (Jackson Lab) were sub-lethally irradiated at a dose of 175 cGy. Approximately 24 hours post irradiation (day 2), mice were injected with 2.5×10^4 RAJI cells via tail-vein. […] Control mice (n=5) received no T cells or uninfected T cells. Mice were given human IL2 (400 IU intraperitoneally) on alternate days till the death of all mice in control group.
Approximately half the cells were selected with puromycin while the other half was expanded without puromycin selection. NSG mice (Jackson Lab) were sub-lethally irradiated at a dose of 175 cGy. Approximately 24 hours post irradiation (day 2), mice were injected with 2.5×10^4 RAJI cells via tail-vein. […] Control mice (n=5) received no T cells or uninfected T cells. Mice were given human IL2 (400 IU intraperitoneally) on alternate days till the death of all mice in control group.
SIR construct. NSG mice (Jackson Lab) were sub-lethally irradiated at a dose of 175 cGy. Approximately 24 hours post irradiation (day 2), mice were injected with 2.5×10^4 RAJI cells via tail-vein. […] SIR encoding lentivirus. […]

[1] = test system: target antigen-expressing cell line; experiment: Jurkat NFAT-GFP assay, coculture with target cell lines expressing the respective target antigen (summary Table 10A); type: cell-based, human; set-up: key: The signs +/−, +, 2+ etc. after the name of the cell lines indicate the relative degree of positivity on the Jurkat-NFAT-GFP assay as measured by the % GFP positive cells; +: relative degree of positivity on the Jurkat-NFAT-GFP assay as measured by the % GFP positive cells; 2+: relative degree of positivity on the Jurkat-NFAT-GFP assay as measured by the % GFP positive cells
In short: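 Coculture of SIR-bearing Jurkat NFAT-GFP reporters with target cells, ~1:2 E:T, ~4–18 h. FACS quantified % GFP+ cells, ranked semi-quantitatively against parental Jurkat-NFAT-GFP.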

SKOV-3 cells = experiment: SKOV-3 intraperitoneal xenograft in NSG mice (survival); type: in vivo; conditions: NSG mice (n = 3), 1×10^6 SKOV-3 cells intraperitoneally, 5 million T cells intravenously
Method: Human peripheral blood T cells isolated using CD3 magnetic beads were infected with lentiviruses expressing the indicated SIR constructs targeting Folate receptor 1 (FR1), L1CAM and Epcam1. On day 1, the NSG mice were sub-lethally irradiated at a dose of 175 cGy. 24 hours post irradiation (day 2), mice were injected with 1×10^6 SKOV-3 cells intraperitoneally. On day 3, the mice were treated intravenously with 5 million indicated CAR-T cells. Beginning On day 4, mice were injected with human IL-2 i.p. at a dose of 400 IU/mice every alternate day after the injection CAR-T cells till the death of all mice in control group.

B1: IL-7: exogenous recombinant human IL-7 (protein, UniProt P13232 26-177, looked up)
Interleukin-7: DCDIEGKDGKQYESVLMVSIDQLLDSMKEIGSNCLNNEFNFFKRHICDANKEGMFLFRAARKLRQFLKMNSTGDFDLHLLKVSEGTTILLNCTGQVKGRKPAALGEAQPTKSLEENKSLKEQKKLNDLCFLKRLLQEIKTCWNKILMGTKEH
RAJI cells
  tumor rejection and survival (in words): reject their tumor and survive longer

B2: 121815-C05 (protein)
chain: MALPVTALLLPLALLLHAARPDELQMTQSPSSLSASVGDRVTITCRASQSISSYLNWYQQKPGQPPKLLIYWASTRESGVPDRFSGSESGTNYTLTISSLQPEDFATYFCQQSDSLPITFGQGTRLDIQLEGKPIPNPLLGLDSTGSGEDLKNVFPPEVAVFEPSKAEIAHTQKATLVCLATGFYPDHVELSWWVNGKEVHSGVCTDPQPLKEQPALNDSRYCLSSRLRVSATFWQNPRNHFRCQVQFYGLSENDEWTQDRAKPVTQIVSAEAWGRADCGITSASYHQGVLSATILYEILLGKATLYAVLVSALVLMAMVKRKDSRGRAKRSGSGATNFSLLKQAGDVEENPGPTSMDWIWRILFLVGAATGAHSFEEVQLLESGGGVVQPGRSLRLSCAASGFTFSSYGMHWVRQAPGKGLEWVAVISYDGSNKYYADSVKGRFTISRDNSKNTLYLQMNSLRAEDTAVYYCAKDMGWGSGWRPYYYYGMDVWGQGTTVTVSSTREQKLISEEDGSGIQNPDPAVYQLRDSKSSDKSVCLFTDFDSQTNVSQSKDSDVYITDKCVLDMRSMDFKSNSAVAWSNKSDFACANAFNNSIIPEDTFFPSSDVPCDVKLVEKSFETDTNLNFQNLSVIGFRILLLKVAGFNLLMTLRLWSSRAKRSGSGVKQTLNFDLLKLAGDVESNPGPSRGHMTEYKPTVRLATRDDVPRAVRTLAAAFADYPATRHTVDPDRHIERVTELQELFLTRVGLDIGKVWVADDGAAVAVWTTPESVEAGAVFAEIGPRMAELSGSRLAAQQQMEGLLAPHRPKEPAWFLATVGVSPDHQGKGLGSAVVLPGVEAAERAGVPAFLETSAPRNLPFYERLGFTVTADVEVPEGPRTWCMTRKPGA
modifications: Synthetic Immune Receptor (SIR)
[1]; coculture with A549 cells
  NFAT-GFP ASSAY Positive Cell lines: A549 (2+), Hela
[1]; coculture with PC3 cells
  NFAT-GFP ASSAY Positive Cell lines: 2+
[1]; coculture with SKOV3 cells
  NFAT-GFP ASSAY Positive Cell lines: (+)
SKOV-3 cells
  Median Survival: 63 days

B3: 010716-G03 (protein)
chain: MALPVTALLLPLALLLHAARPDIQMTQSFSSLSASVGDRVTITCRASQDISNYLNWYQQKPGKAPKLLIYYTSRLHSGVPSRFSGSGSGTDYTLTISSLQPEDFATYFCQQGNTLPWTFGGGTKLEIKRLEGKPIPNPLLGLDSTGSGEDLKNVFPPEVAVFEPSKAEIAHTQKATLVCLATGFYPDHVELSWWVNGKEVHSGVCTDPQPLKEQPALNDSRYCLSSRLRVSATFWQNPRNHFRCQVQFYGLSENDEWTQDRAKPVTQIVSAEAWGRADCGITSASYHQGVLSATILYEILLGKATLYAVLVSALVLMAMVKRKDSRGRAKRSGSGATNFSLLKQAGDVEENPGPTSMDWIWRILFLVGAATGAHSFEEVQLVQSGGGLVQSGGSLRLSCRASGYTFTRYWMLWVRQRPGKGLEWVAEINPRNDRTNYNEKFKTRFTISVDRSKNTLYLQMDSLRAEDTAVYFCALGGGYAMDYWGQGTLVTVSSTREQKLISEEDGSGIQNPDPAVYQLRDSKSSDKSVCLFTDFDSQTNVSQSKDSDVYITDKCVLDMRSMDFKSNSAVAWSNKSDFACANAFNNSIIPEDTFFPSSDVPCDVKLVEKSFETDTNLNFQNLSVIGFRILLLKVAGFNLLMTLRLWSSRAKRSGSGVKQTLNFDLLKLAGDVESNPGPSRGHMTEYKPTVRLATRDDVPRAVRTLAAAFADYPATRHTVDPDRHIERVTELQELFLTRVGLDIGKVWVADDGAAVAVWTTPESVEAGAVFAEIGPRMAELSGSRLAAQQQMEGLLAPHRPKEPAWFLATVGVSPDHQGKGLGSAVVLPGVEAAERAGVPAFLETSAPRNLPFYERLGFTVTADVEVPEGPRTWCMTRKPGA
modifications: Synthetic Immune Receptor (SIR)
[1]; coculture with A549 cells
  NFAT-GFP ASSAY Positive Cell lines: LoVo (+), A549 (+),
[1]; coculture with LoVo cells
  NFAT-GFP ASSAY Positive Cell lines: LoVo (+), A549 (+),
SKOV-3 cells
  Median Survival: 63 days
